Earlier results in patent publication US20200069786A1, “COMPOSITION AND PROCESS FOR PREPARING VACCINE” (TREOS BIO ZRT., priority 2018, published 2020).
Where two headings read alike, the source gives them in different places.

Tested on: TSA
[1] = TSA expression rate in GASTRIC cancer
[2] = TSA expression rate in BLADDER cancer
[3] = TSA expression rate in Cervical cancer
[4] = TSA expression rate in Esophageal
[5] = TSA expression rate in HEAD and NECK
[6] = TSA expression rate in LEUKEMIAS
[7] = TSA expression rate in LYMPHOMAS
[8] = TSA expression rate in MELANOMA
[9] = TSA expression rate in PEDIATRIC
[10] = TSA expression rate in PROSTATE cancer

B1: DPPA2 (protein, UniProt Q7Z7J5 1-298, looked up)
Developmental …: MSDANLDSSKKNFLEGEVDDEESVILTLVPVKDDANMEQMEPSVSSTSDVKLEKPKKYNPGHLLQTNEQFTAPQKARCKIPALPLPTILPPINKVCRDTLRDWCQQLGLSTNGKKIEVYLRLHRHAYPEQRQDMPEMSQETRLQRCSRKRKAVTKRARLQRSYEMNERAEETNTVEVITSAPGAMLASWARIAARAVQPKALNSCSIPVSVEAFLMQASGVRWCVVHGRLLSADTKGWVRLQFHAGQAWVPTTHRRMISLFLLPACIFPSPGIEDNMLCPDCAKRNKKMMKRLMTVEK
TSA Expression Rate (ER) (LUNG): 30% | TSA Expression Rate (ER) (OVARIAN): 31% | Expression Rate (ER) % (TSA expression rate in CRC): 44% | Expression Rate (ER) % [1]: 100%

B2: MAGE-A3 (protein, UniProt P43357 1-314, looked up)
Melanoma-associated antigen 3: MPLEQRSQHCKPEEGLEARGEALGLVGAQAPATEEQEAASSSSTLVEVTLGEVPAAESPDPPQSPQGASSLPTTMNYPLWSQSYEDSSNQEEEGPSTFPDLESEFQAALSRKVAELVHFLLLKYRAREPVTKAEMLGSVVGNWQYFFPVIFSKASSSLQLVFGIELMEVDPIGHLYIFATCLGLSYDGLLGDNQIMPKAGLLIIVLAIIAREGDCAPEEKIWEELSVLEVFEGREDSILGDPKKLLTQHFVQENYLEYRQVPGSDPACYEFLWGPRALVETSYVKVLHHMVKISGGPHISYPPLHEWVLREGEE
TSA Expression Rate (ER) (BRAIN): 42% | TSA Expression Rate (ER) (BREAST): 28% | TSA Expression Rate (ER) (HCC): 34% | TSA Expression Rate (ER) (LUNG): 37% | TSA Expression Rate (ER) (OVARIAN): 30% | TSA Expression Rate (ER) (PANCREATIC): 11% | TSA Expression Rate (ER) (THYROID): 22% | Expression Rate (ER) % [2]: 42% | Expression Rate (ER) % (TSA expression rate in CRC): 22% | Expression Rate (ER) % [3]: 16% | Expression Rate (ER) % [4]: 66% | Expression Rate (ER) % [1]: 37% | Expression Rate (ER) % [5]: 40% | Expression Rate (ER) % (TSA expression rate in Kidney): 27% | Expression Rate (ER) % [6]: 65% | Expression Rate (ER) % [7]: 17% | Expression Rate (ER) % [8]: 60% | Expression Rate (ER) % [9]: 76% | Expression Rate (ER) % [10]: 15%

B3: PLAC1 (protein, UniProt Q9HBJ0 23-212, looked up)
Placenta-specific protein 1: QSPMTVLCSIDWFMVTVHPFMLNNDVCVHFHELHLGLGCPPNHVQPHAYQFTYRVTECGIRAKAVSQDMVIYSTEIHYSSKGTPSKFVIPVSCAAPQKSPWLTKPCSMRVASKSRATAQKDEKCYEVFSLSQSSQRPNCDCPPCVFSEEEHTQVPCHQAGAQEAQPLQPSHFLDISEDWSLHTDDMIGSM
TSA Expression Rate (ER) (BREAST): 4% | TSA Expression Rate (ER) (HCC): 41% | TSA Expression Rate (ER) (LUNG): 68% | TSA Expression Rate (ER) (OVARIAN): 21% | TSA Expression Rate (ER) (PANCREATIC): 44% | Expression Rate (ER) % (TSA expression rate in CRC): 27% | Expression Rate (ER) % [10]: 100%

B4: HOM-TES-85 (protein, UniProt Q9P127 1-313, looked up)
Leucine zipper protein 4: MASFRKLTLSEKVPPNHPSRKKVNFLDMSLDDIIIYKELEGTNAEEEKNKRQNHSKKESPSRQQSKAHRHRHRRGYSRCRSNSEEGNHDKKPSQKPSGFKSGQHPLNGQPLIEQEKCSDNYEAQAEKNQGQSEGNQHQSEGNPDKSEESQGQPEENHHSERSRNHLERSLSQSDRSQGQLKRHHPQYERSHGQYKRSHGQSERSHGHSERSHGHSERSHGHSERSHGHSKRSRSQGDLVDTQSDLIATQRDLIATQKDLIATQRDLIATQRDLIVTQRDLVATERDLINQSGRSHGQSERHQRYSTGKNTITT
TSA Expression Rate (ER) (BRAIN): 10% | TSA Expression Rate (ER) (BREAST): 47% | TSA Expression Rate (ER) (HCC): 19% | TSA Expression Rate (ER) (OVARIAN): 32% | Expression Rate (ER) % [2]: 0% | Expression Rate (ER) % [5]: 4% | Expression Rate (ER) % (TSA expression rate in LUNG cancer): 11% | Expression Rate (ER) % [7]: 14%

B5: MAGE-A1 (protein, UniProt P43355 1-309, looked up)
Melanoma-associated antigen 1: MSLEQRSLHCKPEEALEAQQEALGLVCVQAATSSSSPLVLGTLEEVPTAGSTDPPQSPQGASAFPTTINFTRQRQPSEGSSSREEEGPSTSCILESLFRAVITKKVADLVGFLLLKYRAREPVTKAEMLESVIKNYKHCFPEIFGKASESLQLVFGIDVKEADPTGHSYVLVTCLGLSYDGLLGDNQIMPKTGFLIIVLVMIAMEGGHAPEEEIWEELSVMEVYDGREHSAYGEPRKLLTQDLVQEKYLEYRQVPDSDPARYEFLWGPRALAETSYVKVLEYVIKVSARVRFFFPSLREAALREEEEGV
TSA Expression Rate (ER) (BRAIN): 41% | TSA Expression Rate (ER) (BREAST): 31% | TSA Expression Rate (ER) (HCC): 56% | TSA Expression Rate (ER) (LUNG): 42% | TSA Expression Rate (ER) (OVARIAN): 24% | TSA Expression Rate (ER) (PANCREATIC): 27% | TSA Expression Rate (ER) (THYROID): 17% | Expression Rate (ER) % [2]: 34% | Expression Rate (ER) % (TSA expression rate in CRC): 14% | Expression Rate (ER) % [3]: 17% | Expression Rate (ER) % [4]: 46% | Expression Rate (ER) % [1]: 31% | Expression Rate (ER) % [5]: 23% | Expression Rate (ER) % (TSA expression rate in Kidney): 11% | Expression Rate (ER) % [6]: 20% | Expression Rate (ER) % [7]: 9% | Expression Rate (ER) % [8]: 37% | Expression Rate (ER) % [9]: 44% | Expression Rate (ER) % [10]: 13%

B6: MAGE-A4 (protein, UniProt P43358 1-317, looked up)
Melanoma-associated antigen 4: MSSEQKSQHCKPEEGVEAQEEALGLVGAQAPTTEEQEAAVSSSSPLVPGTLEEVPAAESAGPPQSPQGASALPTTISFTCWRQPNEGSSSQEEEGPSTSPDAESLFREALSNKVDELAHFLLRKYRAKELVTKAEMLERVIKNYKRCFPVIFGKASESLKMIFGIDVKEVDPASNTYTLVTCLGLSYDGLLGNNQIFPKTGLLIIVLGTIAMEGDSASEEEIWEELGVMGVYDGREHTVYGEPRKLLTQDWVQENYLEYRQVPGSNPARYEFLWGPRALAETSYVKVLEHVVRVNARVRIAYPSLREAALLEEEEGV
TSA Expression Rate (ER) (BRAIN): 11% | TSA Expression Rate (ER) (BREAST): 9% | TSA Expression Rate (ER) (HCC): 7% | TSA Expression Rate (ER) (LUNG): 27% | TSA Expression Rate (ER) (OVARIAN): 37% | TSA Expression Rate (ER) (PANCREATIC): 2% | TSA Expression Rate (ER) (THYROID): 0% | Expression Rate (ER) % [2]: 27% | Expression Rate (ER) % (TSA expression rate in CRC): 18% | Expression Rate (ER) % [3]: 23% | Expression Rate (ER) % [4]: 76% | Expression Rate (ER) % [1]: 24% | Expression Rate (ER) % [5]: 42% | Expression Rate (ER) % (TSA expression rate in Kidney): 17% | Expression Rate (ER) % [6]: 36% | Expression Rate (ER) % [8]: 30% | Expression Rate (ER) % [9]: 41% | Expression Rate (ER) % [10]: 0%

B7: AKAP-4 (protein, UniProt Q5JQC9 189-854, looked up)
A-kinase anchor protein 4: QSPSAPPAKPPSTQRAVISPDGECSIDDLSFYVNRLSSLVIQMAHKEIKEKLEGKSKCLHHSICPSPGNKERISPRTPASKIASEMAYEAVELTAAEMRGTGEESREGGQKSFLYSELSNKSKSGDKQMSQRESKEFADSISKGLMVYANQVASDMMVSLMKTLKVHSSGKPIPASVVLKRVLLRHTKEIVSDLIDSCMKNLHNITGVLMTDSDFVSAVKRNLFNQWKQNATDIMEAMLKRLVSALIGEEKETKSQSLSYASLKAGSHDPKCRNQSLEFSTMKAEMKERDKGKMKSDPCKSLTSAEKVGEHILKEGLTIWNQKQGNSCKVATKACSNKDEKGEKINASTDSLAKDLIVSALKLIQYHLTQQTKGKDTCEEDCPGSTMGYMAQSTQYEKCGGGQSAKALSVKQLESHRAPGPSTCQKENQHLDSQKMDMSNIVLMLIQKLLNENPFKCEDPCEGENKCSEPRASKAASMSNRSDKAEEQCQEHQELDCTSGMKQANGQFIDKLVESVMKLCLIMAKYSNDGAALAELEEQAASANKPNFRGTRCIHSGAMPQNYQDSLGHEVIVNNQCSTNSLQKQLQAVLQWIAASQFNVPMLYFMGDKDGQLEKLPQVSAKAAEKGYSVGGLLQEVMKFAKERQPDEAVGKVARKQLLDWLLANL
TSA Expression Rate (ER) (BREAST): 85% | TSA Expression Rate (ER) (LUNG): 25% | TSA Expression Rate (ER) (OVARIAN): 89% | Expression Rate (ER) % (TSA expression rate in CRC): 74% | Expression Rate (ER) % [3]: 86% | Expression Rate (ER) % [10]: 65%

B8: SCP3a (protein, UniProt Q8IZU3 1-236, looked up)
Synaptonemal complex protein 3: MVSSGKKYSRKSGKPSVEDQFTRAYDFETEDKKDLSGSEEDVIEGKTAVIEKRRKKRSSAGVVEDMGGEVQNMLEGVGVDINKALLAKRKRLEMYTKASLKTSNQKIEHVWKTQQDQRQKLNQEYSQQFLTLFQQWDLDMQKAEEQEEKILNMFRQQQKILQQSRIVQSQRLKTIKQLYEQFIKSMEELEKNHDNLLTGAQNEFKKEMAMLQKKIMMETQQQEIASVRKSLQSMLF
TSA Expression Rate (ER) (OVARIAN): 25% | Expression Rate (ER) % [6]: 47%

B9: SPAG1 (protein, UniProt Q07617 1-926, looked up)
Sperm-associated antigen 1: MTTKDYPSLWGFGTTKTFKIPIEHLDFKYIEKCSDVKHLEKILCVLRSGEEGYYPELTEFCEKHLQALAPESRALRKDKPAATAASFTAEEWEKIDGDIKSWVSEIKKEEDKMHFHETETFPAMKDNLPPVRGSNSCLHVGKEKYSKRPTKKKTPRDYAEWDKFDVEKECLKIDEDYKEKTVIDKSHLSKIETRIDTAGLTEKEKDFLATREKEKGNEAFNSGDYEEAVMYYTRSISALPTVVAYNNRAQAEIKLQNWNSAFQDCEKVLELEPGNVKALLRRATTYKHQNKLREATEDLSKVLDVEPDNDLAKKTLSEVERDLKNSEAASETQTKGKRMVIQEIENSEDEEGKSGRKHEDGGGDKKPAEPAGAARAAQPCVMGNIQKKLTGKAEGGKRPARGAPQRGQTPEAGADKRSPRRASAAAAAGGGATGHPGGGQGAENPAGLKSQGNELFRSGQFAEAAGKYSAAIALLEPAGSEIADDLSILYSNRAACYLKEGNCSGCIQDCNRALELHPFSMKPLLRRAMAYETLEQYGKAYVDYKTVLQIDCGLQLANDSVNRLSRILMELDGPNWREKLSPIPAVPASVPLQAWHPAKEMISKQAGDSSSHRQQGITDEKTFKALKEEGNQCVNDKNYKDALSKYSECLKINNKECAIYTNRALCYLKLCQFEEAKQDCDQALQLADGNVKAFYRRALAHKGLKNYQKSLIDLNKVILLDPSIIEAKMELEEVTRLLNLKDKTAPFNKEKERRKIEIQEVNEGKEEPGRPAGEVSMGCLASEKGGKSSRSPEDPEKLPIAKPNNAYEFGQIINALSTRKDKEACAHLLAITAPKDLPMFLSNKLEGDTFLLLIQSLKNNLIEKDPSLVYQHLLYLSKAERFKMMLTLISKGQKELIEQLFEDLSDTPNNHFTLEDIQALKRQYEL
TSA Expression Rate (ER) (BREAST): 31% | TSA Expression Rate (ER) (HCC): 11% | TSA Expression Rate (ER) (LUNG): 71% | TSA Expression Rate (ER) (OVARIAN): 31% | TSA Expression Rate (ER) (PANCREATIC): 93% | Expression Rate (ER) % (TSA expression rate in CRC): 55% | Expression Rate (ER) % [5]: 7% | Expression Rate (ER) % (TSA expression rate in Kidney): 11% | Expression Rate (ER) % [10]: 27%
